How the values were obtained:
[1] = molecular target: T1, biotinylated IL-22 with an N-terminal His/FLAG tag (bio.IL-22H/F) (human, UniProt Q9GZX6 34-179, biotinylated (site not stated)); assay: biotinylated IL-22 binding IL-22 receptor complex competition assay, purified scFv, fully germlined
T1 construct: not shown: N-terminal His/FLAG tag
T1 sequence: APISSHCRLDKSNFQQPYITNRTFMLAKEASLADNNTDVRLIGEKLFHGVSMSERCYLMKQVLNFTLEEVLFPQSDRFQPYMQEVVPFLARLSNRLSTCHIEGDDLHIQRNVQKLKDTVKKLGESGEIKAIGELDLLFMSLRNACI
Procedure: (§1) Microtiter plates were coated with an IL-22 receptor complex antibody (1 μg/ml in PBS), and incubated for 1.5 hours at room temperature. Plates were washed three times in PBST, and blocked for 1 hour at room temperature with 2% MPBS. After a further 3 washes, diluted cell conditioned medium containing an IL-22 receptor complex was added and incubated overnight at 4° C. Crude scFv supernatants were prepared as described above. The following day, 25 μl of diluted scFv sample and 25 μl of bio.IL-22H/F (6 ng/ml) were added to the washed plates, and incubated for 1.5 hours at room temperature. Plates were washed 3 times in PBST, then binding of bio.IL-22H/F to the IL-22 receptor complex was detected with Europium-Streptavidin and the DELFIA® reagent kit (PerkinElmer). Time Resolved Fluorescence was measured using a Victor 2™ Plate Reader (Perkin Elmer).
(§2) Sequence data for the six parent clones was used to identify the nearest germline sequence for the heavy and light chain of each clone. Appropriate mutations were made using standard site directed mutagenesis techniques with the appropriate mutagenic primers. Mutation of sequences was confirmed by sequence analysis. Purified scFv from the germlined parent clones were tested in the biotinylated IL-22 binding IL-22 receptor complex competition assay as described earlier, in order to establish the clone potency as measured by IC₅₀ values in the assay.

[2] = molecular target: T1, biotinylated IL-22 with an N-terminal …; assay: IL-22 receptor complex inhibition assay (bio.IL-22H/F binding to IL-22 receptor complex, DELFIA), IgG
Procedure: Potency of purified IgG was verified in the biochemical IL-22 receptor complex inhibition assay as described below. IgG concentrations were titrated in order to obtain potency values.
as §1

[3] = molecular target: T1, biotinylated IL-22 with an N-terminal …; assay: DELFIA competition assay: scFv titrated against bio.IL-22H/F binding to the captured IL-22 receptor complex
Procedure: (§3) Both the IL-22/IL-22R binding assay (described above) and the IL-22/IL-22 receptor complex assay (described below) were used. ScFv concentrations were titrated in order to establish the clone potencies as measured by assay IC₅₀ values. These were determined using GraphPad Prism software and four-parameter logistic equation curve fitting.
as §1

[4] = molecular target: T1, biotinylated IL-22 with an N-terminal …; assay: IL-22 receptor complex inhibition assay (bio.IL-22H/F binding to IL-22 receptor complex, DELFIA), scFv
Procedure: as §3, §1

[5] = molecular target: T1, biotinylated IL-22 with an N-terminal …; assay: biotinylated IL-22 binding IL-22 receptor complex competition assay, purified scFv, parent
Procedure: as §1, §2

[6] = molecular target: T1, biotinylated IL-22 with an N-terminal …; assay: DELFIA competition assay: scFv titrated against bio.IL-22H/F binding to the captured IL-22 receptor complex; remark: listed apart in the source
Procedure: as §1
Purified scFv from positive clones identified from the screening were tested in the DELFIA® IL-22 receptor complex competition assay as described above. A titration of scFv concentrations was used in order to establish the clone potency as measured by IC₅₀ values in the assay. Fourteen optimized clones were designated 097D09, 062A09, 062G05, 087B03, 367D04, 368D04, 166B06, 166G05, 375G06, 376B10, 354A08, 355B06, 355E04, and 356A11.

B1: GIL92 scFv, fully germlined (scFv)
scFv: QVQLVQSGAEVKKPGASVKVSCKASGYTFTDYYMHWVRQAPGQGLEWVGWINPYTGGAFYAQKFRGRVTMTRDTSISTAYMELSRLRSDDTAVYYCAREPEKFDFWGGDNWGRGTLVTVSSGGGGSGGGGSGGGGSAQAVLTQPPSVSGAPGQRVTISCTGSSSNIGAGYGVHWYQQLPGTAPKLLIYGNSNRPSGVPDRFSGSKSGTSASLAITGLQAEDEADYYCQSYDSSLSGYVFGGGTQLTVLSA
IC50 [1]: 40 nM

B2: GIL01 IgG (non-germlined parent) (antibody, V domains shown)
VH: EVQLVESGGGLVTPGGSLRLSCAASGFTFSDYYMSWIRQAPGRGLEWVSAISGSGGSTYYADSVKGRITISRDNAKNSLYLQMSSLRSEDTAVYYCARGLWVWDPLDYWGRGTLVTVSS
VL: DIQMTQSPSTLSASIGDRVTITCRASEGIYHWLAWYQQKPGKAPKLLIYKASSLASGAPSRFSGSGSGTDFTLTISSLQPDDFATYYCQQYSNYPLTFGGGTKLEIKR
notes: Human IgG4 heavy chain constant domain
IC50 [2]: 13 nM

B3: GIL16 IgG (non-germlined parent) (antibody, V domains shown)
VH: QVQLVESGAEVKKPGASVKVSCKASGYTFTSYGISWVRQAPGQGLEWMGWISAYTGNTNYAQKFQGRVTMTTDTSTSTAYMELRSLRSDDTAVYYCARDRGYYDAFDIWGQGTLVTVSS
VL: DIQMTQSPSTLSASIGDRVTITCRASEGIYHWLAWYQQKPGKAPKLLIYKASSLASGAPSRFSGSGSGTDFTLTISSLQPDDFATYYCQQYSNYPLTFGGGTKLEIKR
notes: as for B2
IC50 [2]: 10 nM

B4: GIL16 scFv (non-germlined parent) (scFv)
scFv: QVQLVESGAEVKKPGASVKVSCKASGYTFTSYGISWVRQAPGQGLEWMGWISAYTGNTNYAQKFQGRVTMTTDTSTSTAYMELRSLRSDDTAVYYCARDRGYYDAFDIWGQGTLVTVSSGGGGSGGGGSGGGGSDIQMTQSPSTLSASIGDRVTITCRASEGIYHWLAWYQQKPGKAPKLLIYKASSLASGAPSRFSGSGSGTDFTLTISSLQPDDFATYYCQQYSNYPLTFGGGTKLEIKRAAA
IC50 [3]: 55 nM
IC50 [4]: 49 nM
IC50 [5]: 44 nM
IC50 [6]: 25.9 nM

B5: GIL01 scFv (non-germlined parent) (scFv)
scFv: EVQLVESGGGLVTPGGSLRLSCAASGFTFSDYYMSWIRQAPGRGLEWVSAISGSGGSTYYADSVKGRITISRDNAKNSLYLQMSSLRSEDTAVYYCARGLWVWDPLDYWGRGTLVTVSSGGGGSGGGGSGGGGSDIQMTQSPSTLSASIGDRVTITCRASEGIYHWLAWYQQKPGKAPKLLIYKASSLASGAPSRFSGSGSGTDFTLTISSLQPDDFATYYCQQYSNYPLTFGGGTKLEIKRAAA
notes: also called GIL 1
IC50 [3]: 95 nM
IC50 [4]: 104 nM
IC50 [5]: 124 nM
IC50 [6]: 129 nM

B6: GIL60 IgG (non-germlined parent) (antibody, V domains shown)
VH: EVQLVESGGGVVRPGGSLRLSCAASGFTFDDYGMNWVRQAPGKGLEWVSGVNWNGGTRDYAASVKGRFTISRDNAKNSLYLQMNSLRAEDTALYYCARGWYSGSFYYFGYWGRGTLVTVSS
VL: QAVLTQPSSVSGSPGQSITISCTGASGDVGAYNFVSWYQQHPGKTPKLIIYDVNKRPSGVSNRFSGSKSGNTASLTISGLQAEDESDYYCSSYTSTFSVVFGGGTKVTVLG
notes: as for B2
IC50 [2]: 15 nM

B7: GIL01 scFv, fully germlined (scFv)
scFv: QVQLVESGGGLVKPGGSLRLSCAASGFTFSDYYMSWIRQAPGKGLEWVSAISGSGGSTYYADSVKGRITISRDNAKNSLYLQMNSLRAEDTAVYYCARGLWVWDPLDYWGRGTLVTVSSGGGGSGGGGSGGGGSDIQMTQSPSTLSASVGDRVTITCRASEGIYHWLAWYQQKPGKAPKLLIYKASSLASGVPSRFSGSGSGTDFTLTISSLQPDDFATYYCQQYSNYPLTFGGGTKVEIKRA
IC50 [1]: 143 nM

B8: GIL68 IgG (non-germlined parent) (antibody, V domains shown)
VH: EVQLVQSGAEVKKPGASVKVSCQASGYTFSDYYIHWVRQTPGQGFEWMGWVNPDTGGTRYAQKFQGWVTMTRDMSNTTAYMELPRLRDDDTAVYYCARDLTGFDPFDIWGQGTLVTVSS
VL: QSVLTQPPSVSVAPGKTATITCGGNNFRNKRVHWYQQRPGQAPVLVIYYDSDRPSGIPERFSGSRSGNTATLTISRVEAGDEADFYCQVWDSSTDRPLFGGGTKLTVLG
notes: Human IgG4 heavy chain constant domain; Cryptate labeled in the HTRF assay; also called cryptate labeled GIL68 IgG
IC50 [2]: 2 nM

B9: GIL45 IgG (non-germlined parent) (antibody, V domains shown)
VH: QMQLVQSGGGVVQPGRSLRLSCAASGFTFSNYGMYWVRQAPGKGLEWVAHIWYDGSNEKYADSVKGRMTVSRDNSRNTLYLQMNSLRAEDTAVYYCATEQHWITAFDIWGKGTLVTVSS
VL: QSVLTQPASVSGSPGQSITISCTGTSSDVGGYNYVSWYQQHPGKAPKLMIYEGSKRPSGVSNRFSGSKSGNTASLTISGLQAEDEADYYCSSYTTRSTRVFGGGTKLTVLG
notes: as for B2
IC50 [2]: 180 nM

B10: GIL60 scFv (non-germlined parent) (scFv)
scFv: EVQLVESGGGVVRPGGSLRLSCAASGFTFDDYGMNWVRQAPGKGLEWVSGVNGNGGTRDYAASVKGRFTISRDNAKNSLYLQMNSLRAEDTALYYCARGWYSGSFYYFGYWGRGTLVTVSSGGGGSGGGGSGGGGSAQAVLTQPSSVSGSPGQSITISCTGASGDVGAYNFVSWYQQHPGKTPKLIIYDVNKRPSGVSNRFSGSKSGNTASLTISGLQAEDESDYYCSSYTSTFSVVFGGGTKVTVLGAA
IC50 [3]: 60 nM
IC50 [4]: 43 nM
IC50 [5]: 51 nM
IC50 [6]: 30.8 nM

B11: GIL16 scFv, fully germlined (scFv)
scFv: QVQLVQSGAEVKKPGASVKVSCKASGYTFTSYGISWVRQAPGQGLEWMGWISAYTGNTNYAQKFQGRVTMTTDTSTSTAYMELRSLRSDDTAVYYCARDRGYYDAFDIWGQGTLVTVSSGGGGSGGGGSGGGGSDIQMTQSPSTLSASVGDRVTITCRASEGIYHWLAWYQQKPGKAPKLLIYKASSLASGVPSRFSGSGSGTEFTLTISSLQPDDFATYYCQQYSNYPLTFGGGTKVEIKRA
IC50 [1]: 38 nM

B12: GIL92 scFv (non-germlined parent) (scFv)
scFv: QVQLVQSGAEVKKPGASVKVSCKASGYTFTDYYMHWVRQAPGQGLEWVGWINPYTGGAFYAQKFRGRVTMTRDTSINTAYMELSRLGSDDTAVYYCAREPEKFDFWGGDNWGRGTMVTVSSGGGGSGGGGSGGGGSAQAVLTQPSSVSGAPGQRVTISCTGSSSNIGAGYGVHWYQQLPGTAPKLLIYGNSNRPSGVPDRFSGSKSGTSASLAITGLQAEDEADYYCQSYDSSLSGYVFGTGTQLTVLSAAA
IC50 [3]: 40 nM
IC50 [4]: 16 nM
IC50 [5]: 18 nM
IC50 [6]: 15.3 nM

B13: GIL60 scFv, fully germlined (scFv)
scFv: EVQLVESGGGVVRPGGSLRLSCAASGFTFDDYGMNWVRQAPGKGLEWVSGVNWNGGTRDYAASVKGRFTISRDNAKNSLYLQMNSLRAEDTALYHCARGWYSGSFYYFGYWGRGTLVTVSSGGGGSGGGGSGGGGSAQAALTQPASVSGSPGQSITISCTGASGDVGAYNFVSWYQQHPGKAPKLIIYDVNKRPSGVSNRFSGSKSGNTASLTISGLQAEDEADYYCSSYTSTFSVVFGGGTKLTVLGA
IC50 [1]: 82 nM

B14: GIL68 scFv, fully germlined (scFv)
scFv: QVQLVQSGAEVKKPGASVKVSCKASGYTFSDYYIHWVRQAPGQGLEWMGWVNPDTGGTRYAQKFQGRVTMTRDMSISTAYMELSRLRSDDTAVYYCARDLTGFDPFDIWGQGTLVTVSSGGGGSGGGGSGGGGSASSVLTQPPSVSVAPGKTARITCGGNNFRNKRVHWYQQKPGQAPVLVIYYDSDRPSGIPERFSGSRSGNTATLTISRVEAGDEADYYCQVWDSSTDRPLFGGGTKLTVLGA
IC50 [1]: 14 nM

Reference: US20070243589A1 (Pfizer, published 2007)
